What all share (experiment): Octet BLI; Fab 200 nM
(In general: BLI is a label-free optical method that tracks binding on a fibre tip over time.)

For assay [1], the target named is T1, extracellular domain of rhesus monkey BCMA (rhesus monkey, UniProt F7FFA0 1-53).
T1 construct: extracellular domain; also called RhBCMA

Assay [2] has as its target T2, extracellular domain of human BCMA (human, UniProt Q02223 1-54).
T2 construct: amine-linked to Octet AR2G tips; also called hsBCMA; BCMA (human)
T2 sequence: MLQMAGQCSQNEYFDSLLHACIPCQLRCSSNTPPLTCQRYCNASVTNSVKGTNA

The target in assay [3] is T1, extracellular domain of rhesus monkey …. The source holds these as a separate data set.
Assay [4] has as its target T2, extracellular domain of human BCMA. This is another data set of the same source.

This is an account of results in patent publication US20240327535A1 (EISAI R AND D MANAGEMENT, published 2024).

Residue numbers refer to the chain shown, from its start. Read-outs that look alike come from different tables or passages of the source.

T1 sequence (F7FFA0 entry or part of it): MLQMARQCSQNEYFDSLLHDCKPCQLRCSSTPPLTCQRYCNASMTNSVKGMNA

B1: AB200-R1a-Fab(hCDR2) (Fab, V domains shown)
VH: QVQLVQSGAEVKKPGSSVKVSCKASGGTFSNYWMHWVRQAPGQGLEWMGATYRGHSDTYYNQKFKGRVTITADKSTSTAYMELSSLRSEDTAVYYCARGAIYHGYDVLDNWGQGTLVTVSS
VL: DIQMTQSPSSLSASVGDRVTITCSASQDISNYLNWYQQKPGKAPKLLIYAASSLQSGVPSRFSGSGSGTDFTLTISSLQPEDFATYYCQQYRKLPWTFGQGTKLEIKR
The term Kd denotes the equilibrium constant for the complex coming apart. As for B1, the Kd in assay [1] was 7.14 nM; in assay [2] it was 2.14 nM.

B2: AB200-R1a-Fab_Vk29 (Fab, V domains shown)
VH: B1 VH
VL: B1 VL with Q27H, I29V, A50Y, A51T, S53N, Q55H, K93R
With B2, the Kd in assay [1] is 4.96 nM; in assay [2] it was 1.55 nM.

B3: AB200-R1a-Fab_Vk26 (Fab, V domains shown)
VH: B1 VH
VL: B1 VL with A50Y, A51S, Q55H, S56I
As to B3, the Kd in assay [1] was 17.9 nM; in assay [2], 5.56 nM.

B4: AB200-R1a-Fab_Vk34 (Fab, V domains shown)
VH: B1 VH
VL: B1 VL with Q27H, A50Y, A51T, S53N, Q55H, Q89H, Q90E
Turning to B4, the Kd in assay [1] came out at 74.7 nM; in assay [2], 26.5 nM.

B5: AB200-R1a-Fab_VH60 (Fab, V domains shown)
VH: B1 VH with N31S, G54I, T58S
VL: B1 VL with S26T, A50F, A51T, S53N
As to B5, the Kd in assay [3] stood at 17.8 nM; in assay [4], 13.6 nM.

B6: AB200-R1a-Fab_Vk5 (Fab, V domains shown)
VH: B1 VH
VL: B1 VL with N31S, A50Y, A51T, S53N, Q55H, K93S, L94T
For B6, the Kd is 27.5 nM in assay [1] and 7.83 nM in assay [2].

B7: AB200-R1a-Fab(hCDR1) (Fab, V domains shown)
VH: B1 VH
VL: B1 VL with S24R, D28S, N31S, A50Y, A51T, S53N, Q55H
For the molecule B7, the Kd in assay [1] is 5.3 nM; in assay [2], 1.58 nM.

B8: AB200-R1a-Fab_Vk32 (Fab, V domains shown)
VH: B1 VH
VL: B1 VL with I29L, A50Y, A51T, Q55H, L94T
For the molecule B8, the Kd in assay [1] was 44.7 nM; in assay [2], 11.7 nM.

B9: AB200-R1a-Fab_Vk13 (Fab, V domains shown)
VH: B1 VH
VL: B1 VL with Q27N, A50Y, A51S, S53D, Q55H
Consider B9, for which the values for the dissociation constant (Kd) in assay [1] and in assay [2] were 24.6 nM and 7.14 nM, respectively.

B10: AB200-R1a-Fab_Vk17 (Fab, V domains shown)
VH: B1 VH
VL: B1 VL with S26T, A50Y, A51T, S52T, S53N, Q55H, R92Y
Regarding B10, the Kd in assay [1] is 7.71 nM; in assay [2], 4.45 nM.

B11: AB200-R1a-Fab_Vk4 (Fab, V domains shown)
VH: B1 VH
VL: B1 VL with S24T, S26T, S30T, A50Y, A51T, S53N, Q55H
Consider B11, for which the Kd is 7.9 nM in assay [1] and 2.2 nM in assay [2].

B12: AB200-R1a-Fab_Vk27 (Fab, V domains shown)
VH: B1 VH
VL: B1 VL with S30T, A50F, A51T, S53N, Q55H, R92Y
Regarding B12, the Kd in assay [1] is 10.7 nM; in assay [2], 6.39 nM.

B13: AB200-R1a-Fab_Vk3 (Fab, V domains shown)
VH: B1 VH
VL: B1 VL with L33I, A50Y, A51T, S53N, L54M, Q55H, T97S
For the molecule B13, the results for the Kd in assay [1] and in assay [2] were 6.21 nM and 1.84 nM, respectively.

B14: AB200-R1a-Fab_Vk28 (Fab, V domains shown)
VH: B1 VH
VL: B1 VL with Y32F, A50Y, A51T, S53N, L54M, Q55H, K93S
In the case of B14, the Kd worked out at 7.57 nM in assay [1] and 4.87 nM in assay [2].

B15: AB200-R1a-Fab_Vk19 (Fab, V domains shown)
VH: B1 VH
VL: B1 VL with Q27N, L33I, A50Y, A51T, S53N, Q55H, Y91F
For the molecule B15, the Kd is 5.74 nM in assay [1] and 2.07 nM in assay [2].

B16: AB200-R1a-Fab_Vk11 (Fab, V domains shown)
VH: B1 VH
VL: B1 VL with S24R, I29V, A50Y, A51T, S52T, S53N, Q55H
As for B16, the values for the Kd in assay [1] and in assay [2] were 5.74 nM and 1.53 nM, respectively.

B17: AB200-R1a-Fab_Vk23 (Fab, V domains shown)
VH: B1 VH
VL: B1 VL with A50Y, A51T, S53N, L54I, Q55H, R92K, L94M
Consider B17, for which the Kd was found to be 29.7 nM in assay [1] and 16.8 nM in assay [2].

B18: AB200-R1a-Fab_Vk7 (Fab, V domains shown)
VH: B1 VH
VL: B1 VL with Y32F, A50Y, A51T, S53N, Q55H, Y91F, L94M
As to B18, the Kd in assay [1] stood at 25.1 nM; in assay [2], 14.7 nM.

B19: AB200-R1a-Fab_Vk20 (Fab, V domains shown)
VH: B1 VH
VL: B1 VL with Y32F, A50Y, A51T, S53D, Q55H, R92Y
As to B19, the Kd in assay [1] came to 13.5 nM; in assay [2], 12.8 nM.

B20: AB200-R1a-Fab_Vk21 (Fab, V domains shown)
VH: B1 VH
VL: B1 VL with A50Y, A51T, S53N, Q55H, Q89H, R92K, L94T
Consider B20, for which the figures for the Kd in assay [1] and in assay [2] were 61.4 nM and 32.7 nM, respectively.

B21: AB200-R1a-Fab_Vk31 (Fab, V domains shown)
VH: B1 VH
VL: B1 VL with A50Y, A51T, S53N, L54I, Q55H, S56I, T97S
Turning to B21, the results for the Kd in assay [1] and in assay [2] were 8.96 nM and 2.36 nM, respectively.

B22: AB200-R1a-Fab_Vk24 (Fab, V domains shown)
VH: B1 VH
VL: B1 VL with Q27N, D28S, A50Y, S53N, Q55H
In the case of B22, the Kd in assay [1] came out at 14.2 nM; in assay [2] it was 5.11 nM.

B23: AB200-R1a-Fab_Vk6 (Fab, V domains shown)
VH: B1 VH
VL: B1 VL with S26T, A50F, A51T, S53N
notes: also called AB200 kappa variant 6; AB200_Vk6_Fab
Regarding B23, the results for the Kd in assay [1] and in assay [2] were 4.26 nM and 1.11 nM, respectively.

B24: AB200-R1a-Fab_Vk22 (Fab, V domains shown)
VH: B1 VH
VL: B1 VL with S24R, A50Y, A51T, S53N, Q55H, K93S, L94I
As for B24, the values for the Kd in assay [1] and in assay [2] were 9.91 nM and 2.48 nM, respectively.

B25: AB200-R1a-Fab_Vk1 (Fab, V domains shown)
VH: B1 VH
VL: B1 VL with S24R, N31S, A50Y, A51T, S53N, L54I, Q55H
B25: the results for the Kd in assay [1] and in assay [2] were 6.37 nM and 1.75 nM, respectively.

B26: AB200-R1a-Fab_Vk18 (Fab, V domains shown)
VH: B1 VH
VL: B1 VL with S24T, A50Y, A51T, S53D, Q55H, S56I
Turning to B26, the Kd worked out at 11 nM in assay [1] and 2.93 nM in assay [2].

B27: AB200-R1a-Fab_Vk14 (Fab, V domains shown)
VH: B1 VH
VL: B1 VL with A50Y, A51S, S53N, L54M, Q55H, Y91F
For the molecule B27, the Kd was 11.5 nM in assay [1] and 4.03 nM in assay [2].

B28: AB200-R1a-Fab_Vk36 (Fab, V domains shown)
VH: B1 VH
VL: B1 VL with I29L, A50Y, A51T, S53N, K93R
Turning to B28, the Kd in assay [1] was 5.06 nM; in assay [2], 1.43 nM.
